{"source": "paper PMC12619835", "about": "“KLF5 enables dichotomous lineage programs in pancreatic cancer via the AAA+ ATPase coactivators RUVBL1 and RUVBL2” (Nature Communications, 2025)", "target": "T1, RUVBL1/2 hetero-hexamer (purified, recombinant) (UniProt Q9Y265 1-456; Q9Y230 1-463)", "T1 construct": "RUVBL1; RUVBL2, untagged; Printed as a hetero-hexamer; also called RUVBL1/2 complex; source: E. coli BL21, co-expressed, purified (Ni-NTA, TEV cleavage, SEC on Superose 6); not shown: His6, N-terminal, cleaved", "T1 sequence (Q9Y265 whole entry, chain 1 of 2)": "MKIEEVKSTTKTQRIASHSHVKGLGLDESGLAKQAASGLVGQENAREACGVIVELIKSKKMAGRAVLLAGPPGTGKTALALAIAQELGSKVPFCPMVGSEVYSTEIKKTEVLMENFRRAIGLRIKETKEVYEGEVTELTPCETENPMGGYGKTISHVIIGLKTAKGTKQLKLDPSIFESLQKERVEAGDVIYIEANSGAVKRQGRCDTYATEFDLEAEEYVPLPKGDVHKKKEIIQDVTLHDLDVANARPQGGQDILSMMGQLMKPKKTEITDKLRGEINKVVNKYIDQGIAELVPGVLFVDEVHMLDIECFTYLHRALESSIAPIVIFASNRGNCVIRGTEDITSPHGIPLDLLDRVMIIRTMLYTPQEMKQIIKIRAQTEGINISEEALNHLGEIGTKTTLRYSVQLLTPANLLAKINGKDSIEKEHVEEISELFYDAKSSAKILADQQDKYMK", "T1 sequence (Q9Y230 whole entry, chain 2 of 2)": "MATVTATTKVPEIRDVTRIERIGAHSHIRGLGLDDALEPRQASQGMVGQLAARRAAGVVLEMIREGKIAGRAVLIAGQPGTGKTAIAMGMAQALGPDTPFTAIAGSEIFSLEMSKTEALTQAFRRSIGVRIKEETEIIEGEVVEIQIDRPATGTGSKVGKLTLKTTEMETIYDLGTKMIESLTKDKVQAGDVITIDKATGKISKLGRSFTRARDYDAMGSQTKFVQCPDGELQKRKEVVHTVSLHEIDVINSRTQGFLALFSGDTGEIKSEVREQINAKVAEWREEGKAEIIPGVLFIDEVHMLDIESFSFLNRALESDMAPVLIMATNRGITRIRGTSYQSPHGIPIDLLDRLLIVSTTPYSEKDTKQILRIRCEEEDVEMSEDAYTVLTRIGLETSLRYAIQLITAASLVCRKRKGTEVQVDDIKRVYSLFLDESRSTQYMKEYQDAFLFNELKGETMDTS", "test": "pull-down; MBP-KLF5 (10 μg) or MBP (5 μg) on amylose resin; 10 μg RUVBL1, 10 μg RUVBL2 or 20 μg RUVBL1/2 hetero-hexamer added for 2 h in 50 mM Na3PO4 pH 7.5, 0.1 mM EDTA, 200 mM NaCl, 1 mM DTT, 5% glycerol; washes with 250 mM NaCl; maltose elution; Western blot; 4 °C", "conditions": "both partners purified"}
{"binder": "recombinant MBP-tagged KLF5 (natural protein, KLF5; For the pull-down with pure proteins the MBP-KLF5 was not previously subject to the amylose purification; also called MBP-KLF5; 6xHis-TEV-MBP-KLF5; source: E. coli BL21-CodonPlus (DE3)-RIPL, purified (Ni-NTA, TEV cleavage, SEC; also amylose resin for the mass spectrometry experiments); not shown: His6, N-terminal, cleaved; MBP, N-terminal, kept) not shown", "values": [{"measurement": "binding result", "result": "binds"}]}
